Among the targets are RecQY555A (Escherichia coli, UniProt P15043 1-609, Y555A); RecQ523 (Escherichia coli, UniProt P15043 1-523); RecQWT (Escherichia coli, UniProt P15043 1-609).
What all share (experiment): fluorescence anisotropy; SF50: 50 mM Tris-HCl pH 7.5, 50 mM NaCl, 1 mM DTT, 5 mM MgCl2, 50 µg/mL BSA, 25 °C; anisotropy with 10 nM forked duplex
What all share (conditions): protein: recombinant; label: 3'-fluorescein on fork2; fork: 33 bp duplex with two 21-nt ssDNA arms (3' arm of fork1, 5' arm of fork2)
In general terms: In fluorescence polarisation assays a small probe gives low polarisation when free and higher when bound to something large.

B1: forked duplex (fork1/fork2) (mixed)
DNA 1: CGTTGCGCAATTAAGCTCTAAGCCATCCGCAAATTTTTTTTTTTTTTTTTTTTT
DNA 2: TCCTTTTGATAAGAGGTCATTTTTGCGGATGGTTAGAGCTTAATTGCGCAACG
Consider B1, for which the values for the Kd with RecQY555A, with RecQ523 and with RecQWT were 46 ± 2 nM, 60 ± 2 nM and 13 ± 4 nM, respectively.

Values taken from publication PMC4464074, “The HRDC domain of E. coli RecQ helicase controls single-stranded DNA translocation and double-stranded DNA unwinding rates without affecting mechanoenzymatic coupling”.
